The values below come from patent KR20220022226A (dated 2022).

Where a chain is given by its changes, count along the chain named.

For one experiment, the target named is T1, GST 택(tag)이 달린 IL-33 (human, UniProt O95760 112-270).
T1 construct: also called GST-IL-33; 재조합 GST-IL-33; not shown: Glutathione S-transferase (GST) tag; It is N-terminal, since stop codons pla
T1 sequence: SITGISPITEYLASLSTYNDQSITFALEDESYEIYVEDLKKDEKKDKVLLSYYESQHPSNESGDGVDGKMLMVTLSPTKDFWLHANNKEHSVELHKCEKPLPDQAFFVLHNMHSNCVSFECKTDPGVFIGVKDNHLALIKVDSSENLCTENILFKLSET
Kind of experiment: ELISA, antigen fixed and scFv titrated.

Another experiment addresses IL-1b (UniProt P01584 117-269). In words: immunoblot, C2_2E12 as primary antibody, anti-HA-HRP as secondary.
The next experiment addresses T2, BSA (UniProt P02769 25-607).
T2 construct: Unrelated control protein in the immunoblot
The experiment is described as above.

The next experiment deals with IL-6 (UniProt P05231 30-212). The experiment is described as above.

T2 sequence (P02769 25-607 limits assumed): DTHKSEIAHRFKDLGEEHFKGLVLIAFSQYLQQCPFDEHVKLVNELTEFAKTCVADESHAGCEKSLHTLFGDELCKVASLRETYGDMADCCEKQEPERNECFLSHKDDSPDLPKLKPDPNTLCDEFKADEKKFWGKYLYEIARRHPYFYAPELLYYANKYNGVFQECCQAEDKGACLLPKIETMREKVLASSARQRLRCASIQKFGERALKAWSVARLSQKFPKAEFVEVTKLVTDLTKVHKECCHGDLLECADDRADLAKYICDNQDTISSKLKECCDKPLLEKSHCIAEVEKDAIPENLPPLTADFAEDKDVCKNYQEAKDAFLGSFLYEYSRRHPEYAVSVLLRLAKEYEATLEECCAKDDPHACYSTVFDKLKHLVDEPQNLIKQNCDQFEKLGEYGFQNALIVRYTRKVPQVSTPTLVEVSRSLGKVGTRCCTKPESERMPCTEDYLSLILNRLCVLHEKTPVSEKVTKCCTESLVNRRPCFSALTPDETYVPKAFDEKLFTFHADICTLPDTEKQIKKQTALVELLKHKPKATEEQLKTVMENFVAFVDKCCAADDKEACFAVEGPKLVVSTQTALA

B1: C2_2H5 (scFv)
scFv: EVQLLESGGGLVQPGGSLRLSCAASGFTFSSYYMSWVRQAPGKGLEWVSAISPGSSNKYYADSVKGQFTISRDNSKNTLYLQMNSLRAEDTAVYYCAKLSQSFDYWGQGTLVTVSSGGGGSGGGGSGGSGSQSVLTQPPSASGTPGQRVTISCTGSSSNIGNNGISWYQQLPGTAPKLLIYDNSHRPSGVPDRFSGSKSGTSASLAISGLRSEDETDYYCASWDSSLSGYVFGGGTKLTVLGQAGQHHHHHHGAYPYDVPDYAS
notes: scFv clone from a synthetic human scFv phage library; also called Anti-IL-33 scFv C2_2H5
For the molecule B1, the Kd with GST 택(tag)이 달린 IL-33 is 31 nM. This lies in the double-digit nanomolar range.

B2: C2_1D5 (scFv)
scFv: EVQLLESGGGLVQPGGSLRLSCAASGFTFSSYYMSWVRQAPGKGLEWVSAISPGSSNKYYADSVKGRFTISRDNSKNTLYLQMNSLRAEDTAVYYCARLLSAFDYWGQGTLVTVSSGGGGSGGGGSGGGGSQSVLTQPPSASGTPGQRVTISCSGSSSNIGSNDVSWYQQLPGTAPKLLIYSDSNRPSGVPDRFSGSKSGTSASLAISGLRSEDEADYYCGAWDSSLSGYVFGGGTKLTVLGQAGQHHHHHHGAYPYDVPDYAS
notes: scFv clone from a synthetic human scFv phage library; also called Anti-IL-33 scFv C2_1D5
Take B2: the Kd in the experiment with GST 택(tag)이 달린 IL-33 amounted to 36 nM.

B3: C1_1E1 (scFv)
scFv: B2 scFv with R98K, L100T, G120D, S154T, S166T, S184N, N185K, D214E
notes: scFv clone from a synthetic human scFv phage library; also called Anti-IL-33 scFv C1_1E1
In the experiment with GST 택(tag)이 달린 IL-33, B3 registered a Kd of 48 nM.

B4: C2_2E1 (scFv)
scFv: B2 scFv with K43R, L99M, L100T, A102S, S162N, N185Q, A222S, S225Y, G229A
notes: scFv clone from a synthetic human scFv phage library; also called Anti-IL-33 scFv C2_2E1
In the experiment with GST 택(tag)이 달린 IL-33, B4 came in with a Kd of 35 nM. The Kd values of the last two molecules are within 1.5-fold of each other.

B5: C2_2A10 (scFv)
scFv: EVQLLESGGGLVQPGGSLRLSCAASGFTFSSYYMSWVRQAPGKGLEWVSAISPGSSNKYYADSVKGRFTISRDNSKNTLYLQMNSLGAEDTAVYYCAKLLTGFDYWGQGTLVTVSSGGGGSGGGGSGGGGSQSVLTQPPSASGTPGQRVTISCSGSSSNIGNNAVSWYQQLPGTAPKLLIYDDNHRPSGVPDRFSGSKSGTSASLAISGLRSEDEADYYCGTWDSSLSAYVFGGGTKLTVLGQAGQHHHHHHGAYPYDVPDYAS
notes: scFv clone from a synthetic human scFv phage library; also called Anti-IL-33 scFv C2_2A10
Consider B5, for which the Kd with GST 택(tag)이 달린 IL-33 worked out at 57 nM.

B6: C2_2E12 (scFv)
scFv: EVQLLESGGGLVQPGGSLRLSCAASGFTFSSYYMSWVRQAPGKGLEWVSAISPGSSNKYYADSVKGRFTISRDNSKNTLYLQMNSLRAEDTAVYYCARLTLSFDYWGQGTPVTVSSGGGGSGGGGSGGGGSQSVLTQPPSASGTPGQRVTISCSGSSSNIGSNDVSWYQQLPGTAPKLLIYADSKRPSGVPDRFSGSKSGTSASLAISGLRSEDEADYYCASWDSSLSAYVFGGGTKLTVLG
notes: The recombinant scFv was purified on Ni-NTA agarose and detected with anti-HA-HRP, so the protein tested probably carried His and HA tags; also called Anti-IL-33 scFv C2_2E12; 재조합 C2_2E12 scFv 항체
As for B6, the binding result with IL-1b is listed as “no binding (tested: 0.5 mg/ml, 1:100 희석)”; with BSA, “no binding (tested: 0.5 mg/ml, 1:100 희석)”; with IL-6, “no binding (tested: 0.5 mg/ml, 1:100 희석)”. The molecule further displayed a Kd with GST 택(tag)이 달린 IL-33 of 28 nM.
